Target: IDX-1 (IDX-1/pBJ5 expressed in NIH-3T3) (Rattus norvegicus) (UniProt P52947)
Experiment: cell_activity

Sequence of IDX-1 (IDX-1/pBJ5 expressed in NIH-3T3) (Rattus norvegicus) (P52947 other isoform, or with tags, fused parts or gaps): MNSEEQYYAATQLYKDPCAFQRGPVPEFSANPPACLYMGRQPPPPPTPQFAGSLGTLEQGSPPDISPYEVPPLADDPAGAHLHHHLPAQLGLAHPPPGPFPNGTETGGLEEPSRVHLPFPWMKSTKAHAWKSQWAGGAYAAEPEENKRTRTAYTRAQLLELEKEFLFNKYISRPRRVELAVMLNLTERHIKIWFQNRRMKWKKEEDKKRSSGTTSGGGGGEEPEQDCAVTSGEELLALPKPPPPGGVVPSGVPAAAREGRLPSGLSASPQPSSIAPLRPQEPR

## SMS900(delta-250/-120)CAT promoter
CAT reporter in NIH-3T3
  activity: 5 fold

## SMS900CAT promoter (-900 to +54)
CAT reporter in NIH-3T3
  activity: 4 fold

## SMS(-900/-250)TKCAT
Parent TKCAT not activated
  activity: 4 fold
